Measured values published in the supplement of paper PMC6755084.

B1: F1*; the commonest letter at each place (parent)
chain: GAGACCGCAACTGAAAAGTTGTTATCACTTGTCGTAAGACACTTTGGATGGGTTGAAGTTCTGCACGTAGAAGCAAAAGGC

Variants of: B1
Assay: fraction ligated after 30 min (ligated reads / total reads); higher = more ligase activity
Details: with F1*sub RNA substrate (template-directed ligation), 42 °C
Procedure, shortened: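 Templates from an oligo pool were PCR-amplified, transcribed with T7 and gel-purified to give the ribozyme variants. Ligated and unligated products were separated on gel, reverse transcribed using barcoded primers, and read on a MiSeq. A quality filter of ≥20 was applied to core bases. Fraction ligated was taken as ligated reads as a share of all reads per variant.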

Variant	fraction ligated
GAGACCGCAACTGAAAAGTTGTTATCACTTGTCGAACGACACTTTGGATGGGTTGAAGTTCTGCACGTAGAAGCAAAAGGC [T35A A37C]	0.872
GAGACCGCAACTGAAAAGTTGTTATCACTTGTCGAATGACACTTTGGATGGGTTGAAGTTCTGCACGTAGAAGCAAAAGGC [T35A A37T]	0.86
GAGACCGCAACTGAAAAGTTGTTATCACTTGTCGAAGGACACTTTGGATGGGTTGAAGTTCTGCACGTAGAAGCAAAAGGC [T35A A37G]	0.844
GAGACCGCAACTGAAAAGTTGTTATCACTTGTCTTAAGACACTTTGAATGGGTTGAAGTTCTGCACGTAGAAGCAAAAGGC [G34T G47A]	0.764
GAGACCGCAACTGAAAAGTTGTTATCACTTGTCTTAAGACACTTTGCATGGGTTGAAGTTCTGCACGTAGAAGCAAAAGGC [G34T G47C]	0.342
GAGACCGCAACTGAAAAGTTGTTATCACTTGTCTTAAGACACTTTGTATGGGTTGAAGTTCTGCACGTAGAAGCAAAAGGC [G34T G47T]	0.363
GAGACCGCAACTGAAAAGTTGTTATCACTTGTCTTAAGACACTCTGGATGGGTTGAAGTTCTGCACGTAGAAGCAAAAGGC [G34T T44C]	0.811
GAGACCGCAACTGAAAAGTTGTTATCACTTGTCTTAAGACACTATGGATGGGTTGAAGTTCTGCACGTAGAAGCAAAAGGC [G34T T44A]	0.792
GAGACCGCAACTGAAAAGTTGTTATCACTTGTCTTAAGACACTGTGGATGGGTTGAAGTTCTGCACGTAGAAGCAAAAGGC [G34T T44G]	0.842
GAGACCGCAACTGAAAAGTTGTTATCACTTGTCTTAAGACACTTGGGATGGGTTGAAGTTCTGCACGTAGAAGCAAAAGGC [G34T T45G]	0.385
GAGACCGCAACTGAAAAGTTGTTATCACTTGTCTTAAGACACTTCGGATGGGTTGAAGTTCTGCACGTAGAAGCAAAAGGC [G34T T45C]	0.757
GAGACCGCAACTGAAAAGTTGTTATCACTTGTCTTAAGACACTTAGGATGGGTTGAAGTTCTGCACGTAGAAGCAAAAGGC [G34T T45A]	0.794
GAGACCGCAACTGAAAAGTTGTTATCACTTGTCTCAAGACACTTTGGATGGGTTGAAGTTCTGCACGTAGAAGCAAAAGGC [G34T T35C]	0.81
GAGACCGCAACTGAAAAGTTGTTATCACTTGTCTGAAGACACTTTGGATGGGTTGAAGTTCTGCACGTAGAAGCAAAAGGC [G34T T35G]	0.847
GAGACCGCAACTGAAAAGTTGTTATCACTTGTCTAAAGACACTTTGGATGGGTTGAAGTTCTGCACGTAGAAGCAAAAGGC [G34T T35A]	0.854
GAGACCGCAACTGAAAAGTTGTTATCACTTGTCTTATGACACTTTGGATGGGTTGAAGTTCTGCACGTAGAAGCAAAAGGC [G34T A37T]	0.843
GAGACCGCAACTGAAAAGTTGTTATCACTTGTCTTAGGACACTTTGGATGGGTTGAAGTTCTGCACGTAGAAGCAAAAGGC [G34T A37G]	0.829
GAGACCGCAACTGAAAAGTTGTTATCACTTGTCTTACGACACTTTGGATGGGTTGAAGTTCTGCACGTAGAAGCAAAAGGC [G34T A37C]	0.844
GAGACCGCAACTGAAAAGTTGTTATCACTTGTCGAAAGCCACTTTGGATGGGTTGAAGTTCTGCACGTAGAAGCAAAAGGC [T35A A39C]	0.828
GAGACCGCAACTGAAAAGTTGTTATCACTTGTCGAAAGTCACTTTGGATGGGTTGAAGTTCTGCACGTAGAAGCAAAAGGC [T35A A39T]	0.838
GAGACCGCAACTGAAAAGTTGTTATCACTTGTCGAAAGGCACTTTGGATGGGTTGAAGTTCTGCACGTAGAAGCAAAAGGC [T35A A39G]	0.851
GAGACCGCAACTGAAAAGTTGTTATCACTTGTCTTAAGACACTTTGGTTGGGTTGAAGTTCTGCACGTAGAAGCAAAAGGC [G34T A48T]	0.801
GAGACCGCAACTGAAAAGTTGTTATCACTTGTCTTAAGACACTTTGGGTGGGTTGAAGTTCTGCACGTAGAAGCAAAAGGC [G34T A48G]	0.77

Variant	fraction ligated
GAGACCGCAACTGAAAAGTTGTTATCACTTGTCTTAAGACACTTTGGCTGGGTTGAAGTTCTGCACGTAGAAGCAAAAGGC [G34T A48C]	0.756
GAGACCGCAACTGAAAAGTTGTTATCACTTGTCGATAGACACTTTGGATGGGTTGAAGTTCTGCACGTAGAAGCAAAAGGC [T35A A36T]	0.85
GAGACCGCAACTGAAAAGTTGTTATCACTTGTCGAGAGACACTTTGGATGGGTTGAAGTTCTGCACGTAGAAGCAAAAGGC [T35A A36G]	0.857
GAGACCGCAACTGAAAAGTTGTTATCACTTGTCGACAGACACTTTGGATGGGTTGAAGTTCTGCACGTAGAAGCAAAAGGC [T35A A36C]	0.865
GAGACCGCAACTGAAAAGTTGTTATCACTTGTCTTGAGACACTTTGGATGGGTTGAAGTTCTGCACGTAGAAGCAAAAGGC [G34T A36G]	0.834
GAGACCGCAACTGAAAAGTTGTTATCACTTGTCTTTAGACACTTTGGATGGGTTGAAGTTCTGCACGTAGAAGCAAAAGGC [G34T A36T]	0.827
GAGACCGCAACTGAAAAGTTGTTATCACTTGTCTTAAGACACTTTGGATGGGTTTAAGTTCTGCACGTAGAAGCAAAAGGC [G34T G55T]	0.81
GAGACCGCAACTGAAAAGTTGTTATCACTTGTCTTAAGACACTTTGGATGGGTTAAAGTTCTGCACGTAGAAGCAAAAGGC [G34T G55A]	0.835
GAGACCGCAACTGAAAAGTTGTTATCACTTGTCTTAAGACACTTTGGATGGGTTCAAGTTCTGCACGTAGAAGCAAAAGGC [G34T G55C]	0.796
GAGACCGCAACTGAAAAGTTGTTATCACTTGTCGAAAGACACTTTGGATGGGTTGAAGTTCTGCACGTAGAAGCAAAAGGC [T35A]	0.836
GAGACCGCAACTGAAAAGTTGTTATCACTTGTCTTAAGACAGTTTGGATGGGTTGAAGTTCTGCACGTAGAAGCAAAAGGC [G34T C42G]	0.841
GAGACCGCAACTGAAAAGTTGTTATCACTTGTCTTAAGACAATTTGGATGGGTTGAAGTTCTGCACGTAGAAGCAAAAGGC [G34T C42A]	0.849
GAGACCGCAACTGAAAAGTTGTTATCACTTGTCTTAAGACATTTTGGATGGGTTGAAGTTCTGCACGTAGAAGCAAAAGGC [G34T C42T]	0.848
GAGACCGCAACTGAAAAGTTGTTATCACTTGTCTTAAGACACTTTCGATGGGTTGAAGTTCTGCACGTAGAAGCAAAAGGC [G34T G46C]	0.778
GAGACCGCAACTGAAAAGTTGTTATCACTTGTCTTAAGACACTTTAGATGGGTTGAAGTTCTGCACGTAGAAGCAAAAGGC [G34T G46A]	0.823
GAGACCGCAACTGAAAAGTTGTTATCACTTGTCTTAAGACACTTTTGATGGGTTGAAGTTCTGCACGTAGAAGCAAAAGGC [G34T G46T]	0.763
GAGACCGCAACTGAAAAGTTGTTATCACTTGTCTTAAGACACTTTGGATTGGTTGAAGTTCTGCACGTAGAAGCAAAAGGC [G34T G50T]	0.767
GAGACCGCAACTGAAAAGTTGTTATCACTTGTCTTAAGACACTTTGGATCGGTTGAAGTTCTGCACGTAGAAGCAAAAGGC [G34T G50C]	0.396
GAGACCGCAACTGAAAAGTTGTTATCACTTGTCTTAAGACACTTTGGATAGGTTGAAGTTCTGCACGTAGAAGCAAAAGGC [G34T G50A]	0.606
GAGACCGCAACTGAAAAGTTGTTATCACTTGTCTTAAGACACTTTGGACGGGTTGAAGTTCTGCACGTAGAAGCAAAAGGC [G34T T49C]	0.633
GAGACCGCAACTGAAAAGTTGTTATCACTTGTCTTAAGACACTTTGGAGGGGTTGAAGTTCTGCACGTAGAAGCAAAAGGC [G34T T49G]	0.772
GAGACCGCAACTGAAAAGTTGTTATCACTTGTCTTAAGACACTTTGGAAGGGTTGAAGTTCTGCACGTAGAAGCAAAAGGC [G34T T49A]	0.756
GAGACCGCAACTGAAAAGTTGTTATCACTTGTCTTAAGACACTTTGGATGGGTTGATGTTCTGCACGTAGAAGCAAAAGGC [G34T A57T]	0.81

Variant	fraction ligated
GAGACCGCAACTGAAAAGTTGTTATCACTTGTCTTAAGACACTTTGGATGGGTTGAGGTTCTGCACGTAGAAGCAAAAGGC [G34T A57G]	0.84
GAGACCGCAACTGAAAAGTTGTTATCACTTGTCTTAAGACACTTTGGATGGGTTGACGTTCTGCACGTAGAAGCAAAAGGC [G34T A57C]	0.806
GAGACCGCAACTGAAAAGTTGTTATCACTTGTCTTAAGACACTTTGGATGGGTTGTAGTTCTGCACGTAGAAGCAAAAGGC [G34T A56T]	0.793
GAGACCGCAACTGAAAAGTTGTTATCACTTGTCTTAAGACACTTTGGATGGGTTGCAGTTCTGCACGTAGAAGCAAAAGGC [G34T A56C]	0.805
GAGACCGCAACTGAAAAGTTGTTATCACTTGTCTTAAGACACTTTGGATGGGTTGGAGTTCTGCACGTAGAAGCAAAAGGC [G34T A56G]	0.785
GAGACCGCAACTGAAAAGTTGTTATCACTTGTCGAAAGACGCTTTGGATGGGTTGAAGTTCTGCACGTAGAAGCAAAAGGC [T35A A41G]	0.811
GAGACCGCAACTGAAAAGTTGTTATCACTTGTCGAAAGACCCTTTGGATGGGTTGAAGTTCTGCACGTAGAAGCAAAAGGC [T35A A41C]	0.792
GAGACCGCAACTGAAAAGTTGTTATCACTTGTCTTAAAACACTTTGGATGGGTTGAAGTTCTGCACGTAGAAGCAAAAGGC [G34T G38A]	0.836
GAGACCGCAACTGAAAAGTTGTTATCACTTGTCTTAACACACTTTGGATGGGTTGAAGTTCTGCACGTAGAAGCAAAAGGC [G34T G38C]	0.83
GAGACCGCAACTGAAAAGTTGTTATCACTTGTCTTAATACACTTTGGATGGGTTGAAGTTCTGCACGTAGAAGCAAAAGGC [G34T G38T]	0.82
GAGACCGCAACTGAAAAGTTGTTATCACTTGTCTTAAGCCACTTTGGATGGGTTGAAGTTCTGCACGTAGAAGCAAAAGGC [G34T A39C]	0.779
GAGACCGCAACTGAAAAGTTGTTATCACTTGTCTTAAGTCACTTTGGATGGGTTGAAGTTCTGCACGTAGAAGCAAAAGGC [G34T A39T]	0.804
GAGACCGCAACTGAAAAGTTGTTATCACTTGTCTTAAGGCACTTTGGATGGGTTGAAGTTCTGCACGTAGAAGCAAAAGGC [G34T A39G]	0.808
GAGACCGCAACTGAAAAGTTGTTATCACTTGTCTTAAGACCCTTTGGATGGGTTGAAGTTCTGCACGTAGAAGCAAAAGGC [G34T A41C]	0.755
GAGACCGCAACTGAAAAGTTGTTATCACTTGTCTTAAGACTCTTTGGATGGGTTGAAGTTCTGCACGTAGAAGCAAAAGGC [G34T A41T]	0.763
GAGACCGCAACTGAAAAGTTGTTATCACTTGTCTTAAGACGCTTTGGATGGGTTGAAGTTCTGCACGTAGAAGCAAAAGGC [G34T A41G]	0.768
GAGACCGCAACTGAAAAGTTGTTATCACTTGTCTTAAGACACCTTGGATGGGTTGAAGTTCTGCACGTAGAAGCAAAAGGC [G34T T43C]	0.782
GAGACCGCAACTGAAAAGTTGTTATCACTTGTCTTAAGACACATTGGATGGGTTGAAGTTCTGCACGTAGAAGCAAAAGGC [G34T T43A]	0.827
GAGACCGCAACTGAAAAGTTGTTATCACTTGTCTTAAGACACGTTGGATGGGTTGAAGTTCTGCACGTAGAAGCAAAAGGC [G34T T43G]	0.793
GAGACCGCAACTGAAAAGTTGTTATCACTTGTCTTAAGAAACTTTGGATGGGTTGAAGTTCTGCACGTAGAAGCAAAAGGC [G34T C40A]	0.802
GAGACCGCAACTGAAAAGTTGTTATCACTTGTCTTAAGATACTTTGGATGGGTTGAAGTTCTGCACGTAGAAGCAAAAGGC [G34T C40T]	0.809
GAGACCGCAACTGAAAAGTTGTTATCACTTGTCTTAAGAGACTTTGGATGGGTTGAAGTTCTGCACGTAGAAGCAAAAGGC [G34T C40G]	0.811
